Assay results taken from US20250084152A1 (DUKE UNIVERSITY, published 2025).

Assays:
Experiment in all cases: ELISA on LAH peptide
[1] = target: H3/X31 LAH peptide (LAH-Fc fusion protein) (Influenza A virus H3N2 A/Aichi/2/1968, UniProt P03436 421-475)
[2] = target: H5/VN04 LAH peptide (LAH-Fc fusion protein) (Influenza A virus H5 A/Vietnam/1203/2004, UniProt P87506 416-472)
[3] = target: B/MY04 LAH peptide (LAH-Fc fusion protein) (Influenza B virus B/Malaysia/2506/2004, UniProt P03461 425-480)

Measured: binding result

B/MY04 LAH peptide (LAH-Fc fusion protein), sequence (P03461 425-480 limits assumed): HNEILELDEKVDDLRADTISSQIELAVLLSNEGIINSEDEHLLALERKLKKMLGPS
H3/X31 LAH peptide (LAH-Fc fusion protein), sequence (P03436 421-475 limits assumed): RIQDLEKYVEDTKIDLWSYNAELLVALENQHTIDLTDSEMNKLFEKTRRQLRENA
H5/VN04 LAH peptide (LAH-Fc fusion protein), sequence (P87506 416-472 limits assumed): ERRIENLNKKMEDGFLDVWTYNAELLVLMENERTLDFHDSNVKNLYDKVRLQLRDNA

B1: S1V2-72 (antibody, V domains shown)
VH: QVQLVQSGAELKKPGASVKVSCKASGYTFTGNYIHWMRQVPGQGLEWMGWINPRTGDTHHAQKFQGRVDMTRDTSINTAYLELTRLESDDTALYYCARCVFATSQFDPWGQGTLVTVSS
VL: QSALTQPASVSGSPGQSITISCTGTNSDIGSHNLVSWYQQHPGKAPKVMIYDDSKRPSGVSNRFSGSKSGSTASLTISGLQSEDEADYYCCSYAGSSNWVFGGGTKLTLL
no binding: [1] | [2] | [3]
